According to paper doi:10.1101/2022.05.31.494233 (bioRxiv, 2022):
Ends that are not written are not given here. * marks the point of attachment. Myristoyl = CCCCCCCCCCCCCC(=O)*

Columns and labels:
Test in all cases: SPR
myrUSH3 D10R = target: myrUSH3 D10R
myrUSH3 K7A = target: myrUSH3 K7A
[1] = target: myristoylated Src N-terminal Regulatory Element (SNRE) of c-Src, wild type
myrUSH3 K5A = target: myrUSH3 K5A
SPR = target: the molecule itself

In the case of myrUSH3 D10R (domain or fragment), the fold increase of dimerization relative to WT (myrUSH3 D10R) is reported as 6 fold.

myrUSH3 K7A (domain or fragment) was tested, and the reduction of dimer formation relative to WT (myrUSH3 K7A) was 50% and the reduction of the dimer population relative to WT at the same protein density (myrUSH3 K7A) was 40%.

For “myristoylated Src N-terminal Regulatory Element (SNRE) of c-Src, wild type (domain or fragment)”, the stoichiometry N [1] was 2.

Work on myrUSH3 K5A (domain or fragment) yielded a reduction of dimer formation relative to WT (myrUSH3 K5A) of 50% and a reduction of the dimer population relative to WT at the same protein density (myrUSH3 K5A) of 50%.

B1: myristoylated synthetic peptide with residues 2-16 of c-Src (entire SH4 domain), wild type (peptide, UniProt P12931-1 2-16, looked up)
peptide: Myristoyl-GSNKSKPKDASQRRR
B1: binds (SPR).

B2: myrSH4 R5R7R9 (triple arginine) (peptide, UniProt P12931 2-16, looked up)
peptide: Myristoyl-GSNRSRPRDASQRRR
B2: binds (SPR).
